In PMC5829272:

Legend:
[1] = DMP1 immunofluorescence intensity in brain; conditions: glycan lost; control: wild type mice
[2] = GFAP/lectin immunofluorescence in cortex; conditions: glycan lost; control: wild type mice
RNA sequencing of NSCs = conditions: glycan lost; control: wild type NSCs
[3] = intraperitoneal Evans blue, leakage area in brain sections; conditions: glycan lost; control: wild type mice
[4] = immunofluorescence, retrosplenial granular cortex; conditions: glycan lost; control: wild type mice
cultured NSCs in vitro = conditions: glycan lost; control: wild type NSCs
[5] = RNA sequencing of primary astrocyte cultures; conditions: glycan lost; control: wild type astrocytes
[6] = spontaneous differentiation after EGF/bFGF withdrawal; conditions: glycan lost; control: wild type NSCs
[7] = qPCR, Western blot, immunofluorescence; conditions: glycan lost; control: wild type
cultured NSCs = conditions: glycan lost; control: wild type NSCs
[8] = transmission electron microscopy, retrosplenial granular cortex; conditions: glycan lost; control: wild type mice

B1: Dentin matrix protein 1 (DMP1): S89G-DMP1 (protein)
parent chain: MKTVILLVFLWGLSCALPVARYHNTESESSEERTGDLAGSPPPPTNSESSEESQASPEGQANSDHTDSSESGEELGYDRGQYRPAGGLSKSTGTGADKEDDEDDSGDDTFGDEDNDLGPEEGQWGGPSKLDSDEDSTDTTQSSEDSTSQENSAQDTPSDSKDHDSEDEADSRPEAGDSTQDSESEEQRVGGGSEGESSHGDGSEFDDEGMQSDDPESTRSDRGHARMSSAGIRSEESKGDHEPTSTQDSDDSQSVEFSSRKSFRRSHVSEEDYRGELTDSNSRETQSDSTEDTASKEESRSESQEDTAESQSQEDSPEGQDPSSESSEEAGEPSQESSSESQEGVTSESRGDNPDNTSQAGDQEDSESSEEDSLNTFSSSESQSTEEQADSESNESLSLSEESQESAQDGDSSSQEGLQSQSASTESRSQESQSEQDSRSEEDSDSQDSSRSKEESNSTGSASSSEEDIRPKNMEADSRKLIVDAYHNKPIGDQDDNDCQDGY
- expression_or_secretion [1]: no change
- other: astrocyte end feet coverage of blood vessels [2]: decreases
- other: neural stem cell transcriptome (RNA sequencing of NSCs): changes
- other: blood-brain barrier integrity [3]: decreases
- other: laminin and ZO1 expression at vasculature [4]: decreases
- other: neural stem cell proliferation (cultured NSCs in vitro): increases
- other: astrocyte transcriptome [5]: changes
- other: neural stem cell differentiation [6]: no change
- other: AQP4 expression in astrocytes and brain [7]: decreases
- other: neural stem cell apoptosis (cultured NSCs): no change
- other: astrocyte cell-cell adhesion [8]: decreases
